Experimental data reported in patent US20060234293A1, “Polypeptide methods and means” (priority 2002, published 2006).

Biological target: T1, Biotinylated BRC Repeat 4 peptide (Bio-BRC4) (Homo sapiens, UniProt P51587)
T1 construct: host or cells: chemical synthesis for the peptide; E. coli BL21 Codon Plus for RAD51 F86E
Assay: SPR binding assay of RAD51 F86E on BRC4 coupled-chip
Settings: 5 μM in HBSEP, 60 seconds contact time; FIG. 9(a)
Method: Measurements were performed on the BIACORE X biosensor (BIACORE AB, Uppsala, Sweden). A continuous flow of de-gassed and 0.22 μm filtered HBSEP running buffer was employed at a constant temperature of 25° C.
Flow cells 1 and 2 of a pre-coated streptavidin Sensor chip SA were conditioned with three sequential 20 μl injections of 1 M NaCl, 50 mM NaOH at a flow rate of 20 μl/min.
Biotinylated BRC Repeat 4 peptide (Bio-BRC4) was immobilized to a level of 200 RU by affinity capture onto Flow cell 2 only. This was achieved by two 20 μl injections of 10 nM Bio-BRC4 in HBS-EP at a flow rate of 20 μl/min. Flow cell 1 represented a reference surface to correct for any refractive index variations and thus was not derivated. Flow cells 1 and 2 were both subsequently treated with three successive injections of 40 μl regeneration solution (10 mM Glycine pH 2.5) at a flow rate of 40 μl/min to ensure baseline stabilization.
The […] mutant RAD51 Phe86Glu (F86E) or Ala89Glu (A89E) protein in solution can then be run over the BRC repeat coupled-chip in a Biacore instrument (Biacore AB, Uppsala, Sweden) or other suitable measuring device for surface-plasmon resonance. Reference corrected data was analysed using BIAevalution software (3.2V) and sensorgrams plotted. […]

T1 sequence (P51587 1517-1551 limits assumed): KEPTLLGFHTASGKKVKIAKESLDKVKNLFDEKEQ
T1 sequence (Q06609 whole entry F86E partner): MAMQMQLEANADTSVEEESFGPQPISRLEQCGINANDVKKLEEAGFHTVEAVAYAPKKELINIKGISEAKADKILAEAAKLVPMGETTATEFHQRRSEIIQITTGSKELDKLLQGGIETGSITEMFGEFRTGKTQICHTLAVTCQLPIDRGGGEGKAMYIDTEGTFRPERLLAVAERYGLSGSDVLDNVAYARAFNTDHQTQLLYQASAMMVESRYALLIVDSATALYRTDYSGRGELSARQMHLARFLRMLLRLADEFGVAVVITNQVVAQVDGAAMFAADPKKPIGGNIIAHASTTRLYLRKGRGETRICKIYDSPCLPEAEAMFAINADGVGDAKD

B1: RAD51 F86E: non-oligomerising mutant RAD51 with Phe86 replaced by glutamic acid (protein, UniProt Q06609 2-339, looked up, variant F86E)
DNA repair protein RAD51 …: AMQMQLEANADTSVEEESFGPQPISRLEQCGINANDVKKLEEAGFHTVEAVAYAPKKELINIKGISEAKADKILAEAAKLVPMGETTATEFHQRRSEIIQITTGSKELDKLLQGGIETGSITEMFGEFRTGKTQICHTLAVTCQLPIDRGGGEGKAMYIDTEGTFRPERLLAVAERYGLSGSDVLDNVAYARAFNTDHQTQLLYQASAMMVESRYALLIVDSATALYRTDYSGRGELSARQMHLARFLRMLLRLADEFGVAVVITNQVVAQVDGAAMFAADPKKPIGGNIIAHASTTRLYLRKGRGETRICKIYDSPCLPEAEAMFAINADGVGDAKD
B1 was tested, and the “binding to the BRC4 coupled-chip” value was “binding can easily be detected”.
